From publication PMC10299155, “Single-Molecule Analysis of the Improved Variants of the G-Quadruplex Recognition Protein G4P”

How the values were obtained:
[1] = system: T1, FJG4P (artificial (motif derived from human FANCJ)); test: smTIRFM (koff/kon); settings: EMSA: DNA annealed in 200 mM Tris pH 7.4, 100 mM KCl, 1 mM EDTA; binding 10 min at 25 C, native PAGE; smTIRFM: 100 pM tethered DNA, 100-5000 pM protein, buffer …
T1 sequence: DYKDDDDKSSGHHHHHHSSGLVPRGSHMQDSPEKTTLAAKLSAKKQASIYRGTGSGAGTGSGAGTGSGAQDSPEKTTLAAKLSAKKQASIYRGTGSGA

[2] = system: T2, 2FJG4P (artificial (motif derived from human FANCJ)); test: smTIRFM (koff/kon); settings: EMSA: DNA annealed in 200 mM Tris pH 7.4, 100 mM KCl, 1 mM EDTA; binding 10 min at 25 C, native PAGE; smTIRFM: 100 pM tethered DNA, 100-5000 pM protein, buffer …
T2 sequence: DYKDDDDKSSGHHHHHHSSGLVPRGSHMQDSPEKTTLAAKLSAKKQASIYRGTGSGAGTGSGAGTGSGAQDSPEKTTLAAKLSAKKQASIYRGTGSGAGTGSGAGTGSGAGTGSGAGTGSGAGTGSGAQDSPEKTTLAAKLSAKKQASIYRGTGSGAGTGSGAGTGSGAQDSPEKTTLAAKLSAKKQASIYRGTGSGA

[3] = system: T3, G4P (artificial (RSM derived from human RHAU/DHX36)); test: smTIRFM (koff/kon); settings: EMSA: DNA annealed in 200 mM Tris pH 7.4, 100 mM KCl, 1 mM EDTA; binding 10 min at 25 C, native PAGE; smTIRFM: 100 pM tethered DNA, 100-5000 pM protein, buffer …
T3 sequence: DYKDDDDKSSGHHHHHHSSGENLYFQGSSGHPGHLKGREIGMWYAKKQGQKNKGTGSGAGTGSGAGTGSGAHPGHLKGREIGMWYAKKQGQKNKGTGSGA

FJG4P [4] = target: T4, FJG4P (artificial (motif derived from human …)); test: EMSA; no detectable binding; EMSA: DNA annealed in 200 mM Tris pH 7.4, 100 mM KCl, 1 mM EDTA; binding 10 min at 25 C, native PAGE; smTIRFM: 100 pM tethered DNA, 100-5000 pM protein, buffer; settings: protein: recombinant; tags: N-terminal FLAG-6xHis; label: 5' fluorescein; intramolecular G4, mixed topology
T4 chain: T1 sequence

2G4P [5] = target: T5, 2G4P (artificial (RSM derived from human …)); test: EMSA; EMSA: DNA annealed in 200 mM Tris pH 7.4, 100 mM KCl, 1 mM EDTA; binding 10 min at 25 C, native PAGE; smTIRFM: 100 pM tethered DNA, 100-5000 pM protein, buffer; settings: protein: recombinant, tags: N-terminal FLAG-6xHis
T5 chain: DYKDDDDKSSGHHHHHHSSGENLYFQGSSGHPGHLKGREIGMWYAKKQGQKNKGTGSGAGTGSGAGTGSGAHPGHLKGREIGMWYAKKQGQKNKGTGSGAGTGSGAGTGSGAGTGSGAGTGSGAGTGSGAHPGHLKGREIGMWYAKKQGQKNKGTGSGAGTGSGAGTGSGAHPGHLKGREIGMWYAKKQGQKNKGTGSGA

G4P [6] = target: T6, G4P (artificial (RSM derived from human …)); test: as above; settings: protein: recombinant, tags: N-terminal FLAG-6xHis
T6 chain: T3 sequence

2FJG4P [7] = target: T7, 2FJG4P (artificial (motif derived from human …)); test: mass photometry; higher molecular weight complexes; EMSA: DNA annealed in 200 mM Tris pH 7.4, 100 mM KCl, 1 mM EDTA; binding 10 min at 25 C, native PAGE; smTIRFM: 100 pM tethered DNA, 100-5000 pM protein, buffer; settings: protein: recombinant; tags: N-terminal FLAG-6xHis; G4, mixed topology
T7 chain: T2 sequence

2G4P [8] = target: T5, 2G4P; test: smTIRFM (koff/kon); kon 3.9e9 M-1 s-1, koff 0.62 s-1; EMSA: DNA annealed in 200 mM Tris pH 7.4, 100 mM KCl, 1 mM EDTA; binding 10 min at 25 C, native PAGE; smTIRFM: 100 pM tethered DNA, 100-5000 pM protein, buffer; settings: protein: recombinant; tags: N-terminal FLAG-6xHis; label: 3' biotin on strand 2; 18 bp duplex with 3' ssDNA tail folded as parallel G4
G4P [9] = target: T6, G4P; test: smTIRFM (koff/kon); kon 2.16e9 M-1 s-1, koff 0.61 s-1; EMSA: DNA annealed in 200 mM Tris pH 7.4, 100 mM KCl, 1 mM EDTA; binding 10 min at 25 C, native PAGE; smTIRFM: 100 pM tethered DNA, 100-5000 pM protein, buffer; settings: protein: recombinant; tags: N-terminal FLAG-6xHis; label: 3' biotin on strand 2; 18 bp duplex with 3' ssDNA tail folded as parallel G4
2FJG4P [10] = target: T7, 2FJG4P; test: smTIRFM (koff/kon); kon 4.7e9 M-1 s-1, koff 1.0 s-1; EMSA: DNA annealed in 200 mM Tris pH 7.4, 100 mM KCl, 1 mM EDTA; binding 10 min at 25 C, native PAGE; smTIRFM: 100 pM tethered DNA, 100-5000 pM protein, buffer; settings: protein: recombinant; tags: N-terminal FLAG-6xHis; label: 3' biotin on strand 2; 18 bp duplex with 3' ssDNA tail folded as parallel G4
FJG4P [11] = target: T4, FJG4P; test: smTIRFM (koff/kon); kon 3.45e9 M-1 s-1, koff 0.94 s-1; EMSA: DNA annealed in 200 mM Tris pH 7.4, 100 mM KCl, 1 mM EDTA; binding 10 min at 25 C, native PAGE; smTIRFM: 100 pM tethered DNA, 100-5000 pM protein, buffer; settings: protein: recombinant; tags: N-terminal FLAG-6xHis; label: 3' biotin on strand 2; 18 bp duplex with 3' ssDNA tail folded as parallel G4
2FJG4P [12] = target: T7, 2FJG4P; test: EMSA; EMSA: DNA annealed in 200 mM Tris pH 7.4, 100 mM KCl, 1 mM EDTA; binding 10 min at 25 C, native PAGE; smTIRFM: 100 pM tethered DNA, 100-5000 pM protein, buffer; settings: protein: recombinant; tags: N-terminal FLAG-6xHis; label: 3' 6-FAM; intramolecular parallel G4
FJG4P [13] = target: T4, FJG4P; test: as above; settings: protein: recombinant; tags: N-terminal FLAG-6xHis; label: 3' 6-FAM; intramolecular parallel G4
G4P [14] = target: T6, G4P; test: smTIRFM (koff/kon); kon 0.43e9 M-1 s-1, koff 0.67 s-1; EMSA: DNA annealed in 200 mM Tris pH 7.4, 100 mM KCl, 1 mM EDTA; binding 10 min at 25 C, native PAGE; smTIRFM: 100 pM tethered DNA, 100-5000 pM protein, buffer; settings: protein: recombinant; tags: N-terminal FLAG-6xHis; label: 3' biotin on strand 2; 18 bp duplex with 3' ssDNA tail folded as G4, mixed topology
2G4P [15] = target: T5, 2G4P; test: smTIRFM (koff/kon); kon 0.0845e9 M-1 s-1, koff 0.29 s-1; EMSA: DNA annealed in 200 mM Tris pH 7.4, 100 mM KCl, 1 mM EDTA; binding 10 min at 25 C, native PAGE; smTIRFM: 100 pM tethered DNA, 100-5000 pM protein, buffer; settings: protein: recombinant; tags: N-terminal FLAG-6xHis; label: 3' biotin on strand 2; 18 bp duplex with 3' ssDNA tail folded as G4, mixed topology
2FJG4P [16] = target: T7, 2FJG4P; test: smTIRFM (koff/kon); kon 0.0339e9 M-1 s-1, koff 0.4 s-1; EMSA: DNA annealed in 200 mM Tris pH 7.4, 100 mM KCl, 1 mM EDTA; binding 10 min at 25 C, native PAGE; smTIRFM: 100 pM tethered DNA, 100-5000 pM protein, buffer; settings: protein: recombinant; tags: N-terminal FLAG-6xHis; label: 3' biotin on strand 2; 18 bp duplex with 3' ssDNA tail folded as G4, mixed topology
FJG4P [17] = target: T4, FJG4P; test: smTIRFM (koff/kon); kon 0.01e9 M-1 s-1, koff 0.33 s-1; EMSA: DNA annealed in 200 mM Tris pH 7.4, 100 mM KCl, 1 mM EDTA; binding 10 min at 25 C, native PAGE; smTIRFM: 100 pM tethered DNA, 100-5000 pM protein, buffer; settings: protein: recombinant; tags: N-terminal FLAG-6xHis; label: 3' biotin on strand 2; 18 bp duplex with 3' ssDNA tail folded as G4, mixed topology
2G4P [18] = target: T5, 2G4P; test: mass photometry; higher molecular weight complexes; EMSA: DNA annealed in 200 mM Tris pH 7.4, 100 mM KCl, 1 mM EDTA; binding 10 min at 25 C, native PAGE; smTIRFM: 100 pM tethered DNA, 100-5000 pM protein, buffer; settings: protein: recombinant; tags: N-terminal FLAG-6xHis; two G4s, mixed topology
2FJG4P [19] = target: T7, 2FJG4P; test: mass photometry; largest network size; EMSA: DNA annealed in 200 mM Tris pH 7.4, 100 mM KCl, 1 mM EDTA; binding 10 min at 25 C, native PAGE; smTIRFM: 100 pM tethered DNA, 100-5000 pM protein, buffer; settings: protein: recombinant; tags: N-terminal FLAG-6xHis; two G4s, mixed topology
[20] = label: 5' fluorescein, intramolecular G4, mixed topology
[21] = label: 3' 6-FAM, intramolecular parallel G4

## TGGCGACGGCAGCGAGGCTTAGGGTTAGGGTTAGGGTTTAGGGTTAGGGTTAGGGTTAGGGTTTAGGGTTAGGG / GCCTCGCTGCCGTCGCCA [2hTelG4 (smTIRFM tethering)]
[1]
  Kd: 14.5 nM
[2]
  Kd: 4.6 nM
[3]
  Kd: 1.9 nM

## TTAGGGTTAGGGTTAGGGTTTAGGGTTAGGG (structured_DNA) [hTelG4 (EMSA)]
FJG4P [4]
  binding result: no binding
2G4P [5]; [20]
  Kd: 86.2 ± 6 nM
G4P [6]; [20]
  Kd: 558 ± 157 nM

## TTAGGGTTAGGGTTAGGGTTTAGGGTTAGGG (structured_DNA) [hTelG4 (mass photometry)]
2FJG4P [7]
  binding result: binds

B1: c-MYCG4 (smTIRFM tethering) (mixed)
DNA 1: TGGCGACGGCAGCGAGGCTGGGTGGGTAGGGTGGGTTT
DNA 2: GCCTCGCTGCCGTCGCCA
2G4P [8]
  Kd: 0.16 ± 0.01 nM
G4P [9]
  Kd: 0.22 ± 0.02 nM
2FJG4P [10]
  Kd: 0.2 ± 0.01 nM
FJG4P [11]
  Kd: 0.27 ± 0.03 nM

## TGGGTGGGTAGGGTGGGTTT (structured_DNA) [c-MYCG4 (EMSA)]
2FJG4P [12]
  Kd: 130 ± 63 nM
2G4P [5]; [21]
  Kd: 27.7 ± 4 nM
G4P [6]; [21]
  Kd: 84.1 ± 8 nM
FJG4P [13]
  Kd: 110 ± 58.9 nM

B2: hTelG4 (smTIRFM tethering) (mixed)
DNA 1: TGGCGACGGCAGCGAGGCTTAGGGTTAGGGTTAGGGTTTAGGGTTAGGG
DNA 2: GCCTCGCTGCCGTCGCCA
G4P [14]
  Kd: 1.6 ± 0.1 nM
2G4P [15]
  Kd: 3.4 ± 0.3 nM
2FJG4P [16]
  Kd: 10.7 ± 1.7 nM
FJG4P [17]
  Kd: 32.7 ± 4.8 nM

B3: 2hTelG4 (mass photometry) (structured_DNA)
DNA: TTAGGGTTAGGGTTAGGGTTTAGGGTTAGGGTTAGGGTTAGGGTTAGGGTTTAGGGTTAGGG
2G4P [18]
  binding result: binds
2FJG4P [19]
  binding result: binds
